Reference: patent US8329178B2

Legend:
Test in all cases: FACS, 293T cells expressing CXCR4 variants
ΔN25-CXCR4 (human) = ΔN25-CXCR4 (human) (UniProt P61073)
ΔN31-CXCR4 (human) = ΔN31-CXCR4 (human) (UniProt P61073)
[1] = molecular target: CXCR2/CXCR4 chimera 2444b (human) (UniProt P61073)
[2] = molecular target: CXCR2/CXCR4 chimera 2442 (human) (UniProt P61073)

Chain of ΔN31-CXCR4 (human) (P61073 32-352, stated change not applied): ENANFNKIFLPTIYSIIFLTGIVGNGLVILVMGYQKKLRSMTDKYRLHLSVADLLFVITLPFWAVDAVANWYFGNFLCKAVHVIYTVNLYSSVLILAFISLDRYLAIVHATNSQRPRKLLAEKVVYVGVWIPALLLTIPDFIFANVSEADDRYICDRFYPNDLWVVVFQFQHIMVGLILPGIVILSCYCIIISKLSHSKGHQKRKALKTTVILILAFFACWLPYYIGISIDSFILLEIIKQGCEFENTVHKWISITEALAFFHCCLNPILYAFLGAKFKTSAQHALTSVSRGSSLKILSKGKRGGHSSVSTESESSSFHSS
Chain of ΔN25-CXCR4 (human) (P61073 26-352, stated change not applied): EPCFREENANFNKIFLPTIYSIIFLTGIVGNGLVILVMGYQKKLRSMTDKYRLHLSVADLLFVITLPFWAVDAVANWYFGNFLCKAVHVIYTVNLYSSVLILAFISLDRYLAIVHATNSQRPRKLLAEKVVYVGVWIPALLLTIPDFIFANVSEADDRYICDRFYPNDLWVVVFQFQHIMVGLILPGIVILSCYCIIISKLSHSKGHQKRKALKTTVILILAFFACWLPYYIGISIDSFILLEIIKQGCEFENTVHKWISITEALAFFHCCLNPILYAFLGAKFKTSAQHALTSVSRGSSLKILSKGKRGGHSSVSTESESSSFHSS

B1: 33-IgG1 (antibody, V domains shown)
VH: QVTLKESGGGVVQPGRSLRLSCAASGFTFTNYGLHWVRQAPGKGLEWVAVISHDGTKKYYADSVKGRFTISRDSSENTLYLQMNSLRPEDSALYYCARDGGYCSGGRCYSYGMDVWGQGTTVTVSS
VL: QSVLTQPPSASGTPGQRVTISCSGSRSNIGSNTVNWYQQLPGTAPKLLIYTNNQRPSGVPDRFSGSKSGTSASLAITGLQAEDEADYYCLSFDSSLTSYVFGTGTKVTVLG
Question: For B1, which binding to cells expressing the variant (+%) (ΔN25-CXCR4 (human)) is on record?
Answer: 13%

Question: What about the binding to cells expressing the variant (+%) (ΔN31-CXCR4 (human)) of the same binder?
Answer: 9%

Question: And the binding to cells expressing the variant (+%) [1]?
Answer: 1%

Question: And the binding to cells expressing the variant (+%) [2]?
Answer: 1.5%
